B1: GRLBD(F602S) (domain or fragment, UniProt P04150 521-777, looked up)
chain: VPATLPQLTPTLVSLLEVIEPEVLYAGYDSSVPDSTWRIMTTLNMLGGRQVIAAVKWAKAIPGFRNLHLDDQMTLLQYSWMSLMAFALGWRSYRQSSANLLCFAPDLIINEQRMTLPCMYDQCKHMLYVSSELHRLQVSYEEYLCMKTLLLLSSVPKDGLKSQELFDEIRMTYIKELGKAIVKREGNSSQNWQRFYQLTKLLDSMHEVVENLLNYCFQTFLDKTMSIEFPEMLAEIITNQIPKYSNGNIKKLLFHQK
B2: MBP-GRLBD(F602S) (domain or fragment, UniProt P04150 521-777, looked up)
chain: VPATLPQLTPTLVSLLEVIEPEVLYAGYDSSVPDSTWRIMTTLNMLGGRQVIAAVKWAKAIPGFRNLHLDDQMTLLQYSWMSLMAFALGWRSYRQSSANLLCFAPDLIINEQRMTLPCMYDQCKHMLYVSSELHRLQVSYEEYLCMKTLLLLSSVPKDGLKSQELFDEIRMTYIKELGKAIVKREGNSSQNWQRFYQLTKLLDSMHEVVENLLNYCFQTFLDKTMSIEFPEMLAEIITNQIPKYSNGNIKKLLFHQK
B3: Human p23 (natural protein, UniProt Q15185 1-160, looked up)
chain: MQPASAKWYDRRDYVFIEFCVEDSKDVNVNFEKSKLTFSCLGGSDNFKHLNEIDLFHCIDPNDSKHKRTDRSILCCLRKGESGQSWPRLTKERAKLNWLSVDFNNWKDWEDDSDEDMSNFDRFSEMMNNMGGDEDVDLPEVDGADDDSQDSDDEKMPDLE

Experiments:
[1] = molecular target: Human HOP (human, UniProt P31948 1-543); test: pull-down
[2] = molecular target: T1, Human Hsp90α (human, UniProt P07900 1-732); test: pull-down
[3] = molecular target: Hsp90(D93N) (human, UniProt P07900 1-732, D93N); test: pull-down
[4] = molecular target: Hsp90(E47A) (human, UniProt P07900 1-732, E47A); test: pull-down
[5] = molecular target: T1, Human Hsp90α; test: cryo-EM structure
[6] = molecular target: B1; test: pull-down

Binder | binding result [1] | binding result [2] | binding result [3] | binding result [4] | binding result [5] | binding result [6]
B1 | binds | binds | binds | binds | – | –
B2 | – | – | – | – | binds | –
B3 | – | binds | – | – | – | binds

Reference: paper PMC4087167 (Cell, 2014)
